The values that follow are results of earlier work, collected in paper PMC3985698.

This data set concerns the target Bad (Homo sapiens) (UniProt Q92934). The settings on record: cited from earlier work.
Chain of UniProt Q92934 (Q92934 whole entry): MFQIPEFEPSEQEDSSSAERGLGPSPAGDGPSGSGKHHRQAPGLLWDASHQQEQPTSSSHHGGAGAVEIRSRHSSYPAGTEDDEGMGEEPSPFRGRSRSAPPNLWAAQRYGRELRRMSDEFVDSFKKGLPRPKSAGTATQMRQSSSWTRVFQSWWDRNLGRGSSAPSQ

For Bcl-xL (from UniProt Q07817), the dissociation constant (Kd) is 0.6 nM.

By Kd is commonly meant the equilibrium constant for the complex coming apart.
